Test results published in the supplement of paper PMC10724198.
± gives the standard deviation of the averaged measurements.

System: Saccharomyces cerevisiae
Test: protein stability index of tFT-peptide fusion (C-terminal peptide) (PSI (0-1 scale)); higher = more stable (slower turnover)
Details: temperature: 30 C
Description: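 MPS profiling in S. cerevisiae of the yeast C-terminome library: the last 12 aa of each annotated ORF are fused to the C-terminus of a sfGFP-mCherry timer, after a GGGS linker. Cells are FACS-sorted into 8 mCherry/sfGFP bins and deep-sequenced. PSI runs from 0 (unstable) to 1 (stable); wild type and das1Δ backgrounds, two technical replicates each.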

[1] = genetic background: das1 deletion

Sequence: LTWSLAYSGAFS [ACF2 C-terminal 12 aa]
- protein stability index [1]: 0.7217 ± 0.0012
- protein stability index (genetic background: wild type): 0.686 ± 0.013

Sequence: LVIDQITQLRQQ [COG1 C-terminal 12 aa]
- protein stability index [1]: 0.6966 ± 0.0015
- protein stability index (genetic background: wild type): 0.6158 ± 0.0047

Sequence: LVIKRRGFEINT [PET122 C-terminal 12 aa]
- protein stability index [1]: 0.66 ± 0.015
- protein stability index (genetic background: wild type): 0.721 ± 0.043

Sequence: LYGKYNYAAQKV [YDL124W C-terminal 12 aa]
- protein stability index [1]: 0.692 ± 0.013
- protein stability index (genetic background: wild type): 0.333 ± 0.014

Sequence: LYKRWVPGRNRD [SEN2 C-terminal 12 aa]
- protein stability index [1]: 0.696 ± 0.0095
- protein stability index (genetic background: wild type): 0.696 ± 0.034

Sequence: LYVTVFNRSDEA [AVT7 C-terminal 12 aa]
- protein stability index [1]: 0.6773 ± 0.0036
- protein stability index (genetic background: wild type): 0.6811 ± 0.0037

Sequence: MEDILDETTELD [ATG40 C-terminal 12 aa]
- protein stability index [1]: 0.7155 ± 0.0025
- protein stability index (genetic background: wild type): 0.715 ± 0.072

Sequence: MEKENSGLIAFS [HOS2 C-terminal 12 aa]
- protein stability index [1]: 0.7089 ± 0.0061
- protein stability index (genetic background: wild type): 0.7064 ± 0.0059

Sequence: MELWYTCLSKNL [YCR050C C-terminal 12 aa]
- protein stability index [1]: 0.694 ± 0.048
- protein stability index (genetic background: wild type): 0.671 ± 0.034

Sequence: MERRARQQRGQD [MND2 C-terminal 12 aa]
- protein stability index [1]: 0.71114 ± 0.0003
- protein stability index (genetic background: wild type): 0.717 ± 0.046

Sequence: MFGVHDKSVIIE [NSE5 C-terminal 12 aa]
- protein stability index [1]: 0.692 ± 0.058
- protein stability index (genetic background: wild type): 0.7 ± 0.032

Sequence: MFKFNVHKKSKV [TAD2 C-terminal 12 aa]
- protein stability index [1]: 0.72 ± 0.015
- protein stability index (genetic background: wild type): 0.758 ± 0.048

Sequence: MGDEYVSSDEDF [HEF3 C-terminal 12 aa]
- protein stability index [1]: 0.7279 ± 0.0024
- protein stability index (genetic background: wild type): 0.686 ± 0.054

Sequence: MGISSNSFQGVN [KDX1 C-terminal 12 aa]
- protein stability index [1]: 0.70379 ± 8.7e-05
- protein stability index (genetic background: wild type): 0.6626 ± 0.0032

Sequence: MGVFILFLDYVG [UFE1 C-terminal 12 aa]
- protein stability index [1]: 0.277 ± 0.032
- protein stability index (genetic background: wild type): 0.314 ± 0.013

Sequence: MKGPAALWDVQF [ARP9 C-terminal 12 aa]
- protein stability index [1]: 0.724 ± 0.012
- protein stability index (genetic background: wild type): 0.744 ± 0.044

Sequence: MKRSASYTGAKV [TPS2 C-terminal 12 aa]
- protein stability index [1]: 0.7 ± 0.02
- protein stability index (genetic background: wild type): 0.709 ± 0.043

Sequence: MLCTLTGYQNND [NUP192 C-terminal 12 aa]
- protein stability index [1]: 0.7282 ± 0.0051
- protein stability index (genetic background: wild type): 0.685 ± 0.017

Sequence: MPGGMPGMPGMM [HSP60 C-terminal 12 aa]
- protein stability index [1]: 0.7 ± 0.00077
- protein stability index (genetic background: wild type): 0.709 ± 0.0041

Sequence: MQRVSTQHEKET [PMA1 C-terminal 12 aa]
- protein stability index [1]: 0.715 ± 0.0091
- protein stability index (genetic background: wild type): 0.698 ± 0.022

Sequence: MRLTHKSKKKMK [SUE1 C-terminal 12 aa]
- protein stability index [1]: 0.72 ± 0.026
- protein stability index (genetic background: wild type): 0.695 ± 0.0075

Sequence: MSKLGLIPKDFQ [HIS4 C-terminal 12 aa]
- protein stability index [1]: 0.6931 ± 0.0056
- protein stability index (genetic background: wild type): 0.707 ± 0.036

Sequence: MSLLGLVPVDRM [MSR1 C-terminal 12 aa]
- protein stability index [1]: 0.696 ± 0.00089
- protein stability index (genetic background: wild type): 0.688 ± 0.023

Sequence: MTGILKDYSHRV [TFA2 C-terminal 12 aa]
- protein stability index [1]: 0.715 ± 0.0083
- protein stability index (genetic background: wild type): 0.723 ± 0.063

Sequence: MVNEWIHGGFSL [PRC1 C-terminal 12 aa]
- protein stability index [1]: 0.73 ± 0.025
- protein stability index (genetic background: wild type): 0.702 ± 0.019

Sequence: MYGLGIRDCCIM [RCY1 C-terminal 12 aa]
- protein stability index [1]: 0.7921 ± 0.0075
- protein stability index (genetic background: wild type): 0.776 ± 0.088

Sequence: NAIKNWTGVNVK [MIC26 C-terminal 12 aa]
- protein stability index [1]: 0.7 ± 0.0014
- protein stability index (genetic background: wild type): 0.695 ± 0.0088

Sequence: NAKKGSKIEEIE [PTC3 C-terminal 12 aa]
- protein stability index [1]: 0.6731 ± 0.0047
- protein stability index (genetic background: wild type): 0.6656 ± 0.0058

Sequence: NCIETFVAEKTT [SRB6 C-terminal 12 aa]
- protein stability index [1]: 0.679 ± 0.014
- protein stability index (genetic background: wild type): 0.669 ± 0.0071

Sequence: NDGTFLDEVTKN [OPI10 C-terminal 12 aa]
- protein stability index [1]: 0.6922 ± 0.0066
- protein stability index (genetic background: wild type): 0.687 ± 0.03

Sequence: NDKGEQVVGGNE [TMA16 C-terminal 12 aa]
- protein stability index [1]: 0.663 ± 0.042
- protein stability index (genetic background: wild type): 0.717 ± 0.04

Sequence: NDLITYMTKAAK [CYC7 C-terminal 12 aa]
- protein stability index [1]: 0.722 ± 0.031
- protein stability index (genetic background: wild type): 0.756 ± 0.14

Sequence: NEDSMEIDDDLD [HSP104 C-terminal 12 aa]
- protein stability index [1]: 0.6988 ± 0.0014
- protein stability index (genetic background: wild type): 0.665 ± 0.021

Sequence: NEKENSLSLSRL [MGT1 C-terminal 12 aa]
- protein stability index [1]: 0.7183 ± 0.0017
- protein stability index (genetic background: wild type): 0.752 ± 0.058

Sequence: NELRMSSSSLTN [VHS1 C-terminal 12 aa]
- protein stability index [1]: 0.6718 ± 0.0013
- protein stability index (genetic background: wild type): 0.693 ± 0.0083

Sequence: NERGLSSNYQTI [FMP42 C-terminal 12 aa]
- protein stability index [1]: 0.7217 ± 0.0025
- protein stability index (genetic background: wild type): 0.6736 ± 0.0013

Sequence: NGKTIKDATDNK [COX19 C-terminal 12 aa]
- protein stability index [1]: 0.669 ± 0.015
- protein stability index (genetic background: wild type): 0.6957 ± 0.0059

Sequence: NGRYIDTEFESM [LCB4 C-terminal 12 aa]
- protein stability index [1]: 0.6854 ± 0.0012
- protein stability index (genetic background: wild type): 0.681 ± 0.022

Sequence: NIRIVNGLQNTR [TIM8 C-terminal 12 aa]
- protein stability index [1]: 0.712 ± 0.014
- protein stability index (genetic background: wild type): 0.669 ± 0.011

Sequence: NKIANFVKNAKK [TRP1 C-terminal 12 aa]
- protein stability index [1]: 0.708 ± 0.02
- protein stability index (genetic background: wild type): 0.701 ± 0.029

Sequence: NKLKTLLAKIFD [IPI1 C-terminal 12 aa]
- protein stability index [1]: 0.708 ± 0.02
- protein stability index (genetic background: wild type): 0.699 ± 0.053
